These results are taken from the DeepSol protein solubility set.

This data set can be described thus: soluble on expression in E. coli; label from the status in PepcDB or PDB records.
“MAVSLSKGGNVSLTKEAPGLTAVTVGLGWDVRTTTGTDFDLDASAIAVNPTGKVYSDAHFVFFNNKQTPDQTIVHTGDNRTGEGAGDDEAINVNLAGLPADVDKIVFPVSIYDAENRSQNFGQVRNAYIRIVNQAGGAEIARYDLSEDAATETAMVFGELYRNGAEWKFRAVGQGYASGLVGIAQDFGVNV”: the “soluble on expression in E. coli” value is reported as “not soluble”.

With “MGSDKIHHHHHHMCSVSGVLILNPKNFEKVELKLASILKKAEDRGRDSFGIVVIQKDGTVKVRKSIGKPSEKEELLYGILDEDSRVVIANNRAEPTTEYVRQKTEDDIQPFIGDRYIVTHNGIIANDLELEKKYELKRKTKIDSAILPLLLDKTWDGNLEALKGILEQIKGSFALVIGDKKNPDRIFLAQNFKPLYMAYDHSLESLFFTSLDEYFDAKPFDPVNITKLEPYSVVMVTSNKLITTLPIMEKRKKYRVLVVASGGLDSTVAATKLLREGHEVTLIHFNYHHKAEEKEREAVRKIAEYLQIPLLEINTDLFKIIGHATLIKGGGEIVKDRKGEEGAEFAHEWVPARNLIFFSVSLAIAEAYGYDAIASGINLEEAGAYPDNEMEFIRMLNKLSPYATGPNKRIEILMPVGNLVKHEIVKLGYEIGAPLHLTWSCYEGGQKHCGKCGPCYMRKMAFRINGLKDPVEYDEE”, the “soluble on expression in E. coli” value was “not soluble”.

Turning to “MGILSGNPQNEPLHYGEVFDIWSYLLAAQGAIASHQVFMNHTGDEDLKKFLEGLIENDMNSEIEELKALLKINGVALPPAPPERPVASIEDIPPGARINDVEIAAAVSTGLAAGLVTCSQVMGKCLREDVGMLFGQFHMKKAQAGVTLLRLSKKKGWVVPPPLHVRNSDQA”, the “soluble on expression in E. coli” value is given as “not soluble”.

On to “MKKLLSACLILFTVVCSAYAADEKEAAPAAEYAYYGFEPEIVTNYISNRKKLGFVKISVELMVKSPDDLVIVERHDPLLRAAIIEVLGNQAEEKVKSLTGREEIRRECFDMVNNLLTKEAGKPLVVNLLFTSYLYD”, for which the “soluble on expression in E. coli” value is reported as “not soluble”.

As to “MGTVEKSSNNDASVTDDIRSAEYYHGMVPRQDAEGFLKREGDFLVRKTEQMPGKVVLAMSVRVTDELCRHFMLNMDPTSNKFYFEHTHQESTISELINWHMTTKTPISAASGAKIRRPMERSPWLINHDSIVANKKLGEGAFGDVFIAELDQGGKQEVAVKTMRAEATREARLRFMKEARLMRKYQHKHVVKLIGVAIHEHPLMIVMEYCPNGSLLSHLKKNKVSLIEKLRFTTEAADGIAYLERSKCIHRDIAARNCLLSAKNELKISDFGMSDNKDEIKDETLEKVPIKWLAPETMQEKVYTHKTDIWTFGVLVWEIYSDGAEPYPGLTKIQTRAKIVVNDYRMKMPDGTHPTVADVVTGTCWQKNPEKRSTMDSIHKKLREFYESKK”, the “soluble on expression in E. coli” value is “not soluble”.

Regarding “MKPKKLSLLLTILPMIIAATGCHSQQESKVDITPHCINLQADSLYRQAMTLMESSCDVDSTRKCIRFLDKALAIDSLNPDYYGMKAKLLSEMGELDSALYIQTLAMEKNAITGEYLFQLGLLQAAKDMHAEAHESFGKSKVFLQAVLKQYPDSLGAFILAEAANSLYENKDSLFMRNIDEIRKRFPERLLEIEMTRRVKPHSLVNQIRRIKIEKDYNIDFDMDSLVEATVNKDLEHHHHHH”, the “soluble on expression in E. coli” value is “not soluble”.

As for “MSLFFIYDFAMIMQFNSRYSDLNAKLYHQQAPVPLKGAKAGHFNEAIADELQWTSQEKQSWVDICSGQKTFDAFKPLAMVYAGHQFGQWAGQLGDGRGLLIGQVLHRSGQTIDLHLKGAGLTPYSRMGDGRAVLRSVIREYLAGHALNSLRVASSNAIGFTTSEQGVQRETLEQGAMLLRTSDCHIRLGHFEWINQYAPELLAEFTQKCIEWHYPEALQAEHPILAFAEGVIKNTAKMIADWQLVGFAHGVMNTDNLNITGSTLDFGPYGFMERFRPNWINNHSDHQGRYAYQNQPSIAHWNLWIWLNNLIPLSKPEDKETFKKQLADCLEHFEPTFLTAYTEGLCKKLGLPDFHKDSFDCGMAFLKVLQSEQLDYTQSFLRLQNHDYKALRDDCLDTRQFDDFLNLYHQIREHQDITALDQTMCDVNPVYILRNHMAQQAIEQAERGDFSEVERLFTLLAKPFTRQPALEKEQDLAPLPSDVPEIMVSCSSEGHHHHHH”, the “soluble on expression in E. coli” value is listed as “not soluble”.

As for “MAFVLNGQDLDALATGGCFFGSGGGGTLSSAKGLLRHFNKGAYYPADQVTVVTVDEAVSAAEGDAVMVAYMGSPQAINGSSYPEGPVGAAENIQGKLATQGRKLAYIVPPESGALGFVVACLVAVRLGLKVIDADGAGRAVPSLPMLTYAAAAISPRPAVLVSQEGLQVELDVTPRDGENGSVTHQQDVAAIIENMMRPIVAAAQFKEFGGLAMWVMAPEQFSAALPIHGTLSRAVKTGHALAAGELDTAARMQDFLKRESGLLARPIFTGQFKAVEVSTGAGFDVGKMHIVSAEATCTVVYQNESMLAWDSRAAAPLVTAPDSLAYFVSGPGQSVYSNGDAVLADGTLSPSLKDRTVTLFAWQADAALRTPDGQILASFMGLLADMGYLGPYISVEAMQLATAGESRPLEHHHHHH”, the “soluble on expression in E. coli” value is “not soluble”.

For “MAARKVRIQTTINSNVYEHYIKKLLPEYGQLNKLIEEAVKQLFEIRENELSKLDRLRAKMMREAGVIAIGFESAEKALKGEIEKVLSENEINFLLEWYYGRPIEKIAFEEAIEFMRTALIAMNWAVDAKVNLEGEETHIMVRSNLGRGLAELLCMVIKHFFERNYGVEVRFSVYPGGYTLSFRHVSTDAYPCSSVRE”, the “soluble on expression in E. coli” value was “not soluble”.

For “MSLDDESYEEEHKRMVLKIHQEFWDLPTNYQEKPLVFGSQAKNRYKTILPNEHSRVILEPERSPAAGGEPYINANYIKGPDYANNSYIATQGPLPNTIYEFWLMVYQNVVRTATVAGRSCASAGLEQKIVMLTNFVENGRQKCAIYFPQTADEWVAFGSGADIDVGEMLREKDTITASIAAAEQQPEGQEAVGGVCQPVTVRVPCASCFFLVHNVAVEQRNGYTVRTLNVIYGAKVSDADAPDGDGSRALFELTQFRAHHYWFPDWPDHRSPKDINVLLDLSLDVLGSNVVDTPRPESSNSLKGNQPGTPGLEEVMGAAQLAALSSSCTPTVLPIVHSSAGIGRTGCLIAILNGLRQLRLSVMAHQRKQQQLKQSQAQTGEAGQGELHGSEGRRKSTVQMDGATLLAPNAAVGRGGQREGSAVVRESGQVDILGIVCNLRLQRGGMVQNSEQYELIHRALCLYLEKLTQDGQEGHHHHHH”, the “soluble on expression in E. coli” value is reported as “soluble”.

Take “MGSDKIHHHHHHMDIRSLKMYLHLCDSLHFAKTAEQSHVSPSTLSRALQRLEDEVGSKLFDRDNRSVTITHAGVEFKRFAEQTLSEWTQLRSRIDPSQQFLRGNLNLYCSVTAAYSHLPALLDRFRREHPHVDINLNTGDPANAVNQIQKNRADIAIIALPEAFPSSLHFTPIDKVPISVIAPTIQCQVQQWVSQAKIDWAKLPYIVPDHGPGRKRIDLWFKQMGIKPNIYAQVSGQEAIVSMVALGCGVGISPEAVIHNSPVRDRIQTLASPIPIPPFELGCCCKEKRTNDPIIRAFLDII”: the “soluble on expression in E. coli” value is on record as “not soluble”.

As to “MGSDKIHHHHHHMNFNELKTFVALVETKHFTKTADRLYISQPTVSLHLKHLEEHFGQSLIHRHTFNKTIEISEAGWIVYRHAKEILHQAIRLEQEIDELEGITRGTLRIAATHTIYEAMLEEMIHDFLLVYPDVSVDARVMNQEQVEQALLHYEIDLGMVEGLHRSHQIEAIPFATDRLRIIGHHHLVPEQATWIYREEGSAARLALETWLQTQAIVPKRIITVYSNRLIKQLIKNGTGISILSERLAGSLLESERFQTYDDSQIDPRMFQFITLKGETTRLSQKWINQHGGSD”, the “soluble on expression in E. coli” value is recorded as “not soluble”.

For the sequence “MNKRRVKPEHVRREEIVNAAYEVIFEVGLSNTTMAQIAKKAQLSVGIVSHYFGDKQGLINACMLEMLNVLRRKTAQYKAEVQDSHPESMIKAIIDSNFDISQVNQRAMRIWLDFWSASMHMPELSRLQRINDQRLYSNLKFHFLELMPKDQASIAARGLAALIDGLWLRGSLSQDTTFDSTLARSIAYDYVDTQLKLVKQIRQERQNE”, the “soluble on expression in E. coli” value is “not soluble”.

With “MQQLQNVIETAFERRADITPANVDTVTREAITHVIDLLDTGALRVAEKIDGQWVTHQWLKKAVLLSFRINDNQVMEGAETRYYDKVPMKFAGYDEARFQREGFRVVPPATVRKGAFIARNTVLMPSYVNIGAFVDEGTMVDTWATVGSCAQIGKNVHLSGGVGIGGVLEPLQANPTIIEDNCFVGARSEVVEGVIVEEGSVISMGVFIGQSTRIYDRETGEVHYGRVPAGSVVVSGNLPSKDGSYSLYCAVIVKKVDAKTRSKVGINELLRTID”, the “soluble on expression in E. coli” value is “not soluble”.

Consider “YNGQSETSQQPETPVFNTLPMMGKASPVSLGVPSEATANNGQQQQVQEQRRRINAMLQDYELQRRLHSEQLQFEQAQTQQAAVQVPGIQTLGTQSQ”, for which the “soluble on expression in E. coli” value is recorded as “soluble”.

As to “FSRAIDEHFVELDHMAMSAKLAVFRDELRGLGSEQQMRRREAELLRELARHPDLGLRLNGPDGNLWFERLPQPAHPGLPANRELGAPLEPGNDASPRLTVILDISHHQHFLQRMRQL”, the “soluble on expression in E. coli” value is “not soluble”.

Turning to “MAEHEQVNWPYVNTKLKRDPAVEAQIEKLLAKMTIEQKVAQMIQPEIGYLTVEQMRKYGFGSYLNGGNTAPYGNKRADQATWLKYADEMYLAAMDSTLDGIAIPTVWGTDAMHGHSNVYGATLFPHNIGLGAARDTDLIKRIGQATAKEVAATGIEWSFAPTVAVVRDDRWGRTYESYSEDPDLVKRYAGEMVTGIQGDVGADFLKGSNRIATAKHFVGDGGTERGVDRGNTLIDEKGLRDIHSAGYFSAINQGVQSVMASFNSWNGKRVHGDKHLLTDVLKNQLGFDGFVVSDWNAHKFVEGCDLEQCAQAINAGVDVIMVPEHFEAFYHNTVKQVKAGVIAESRINDAVRRFLRAKIRWGVFTKSKPSARPESQHPQWLGAAEHRTLAREAVRKSLVLLKNNESILPIKASSRILVAGKGANAINMQAGGWSVSWQGTDNTNSDFPNATSIFSGLQSQVTKAGGKITLSESGEYTSKPDVAIVVIGEEPYAEWFGDIELLEFQHETKHALALLKQLKADNIPVVTVFLSGRPLWVNKELNASDAFVAAWLPGSEGEGVADVLLTNKQGKTQFDFTGKLSFSWPKYDDQFTLNLNDADYDPLFAYGYGLTYQDNINVPVLSEKTSPKKTVNSDSHPLFVRSLAKNMTWQLADTSTQKVLASGASATSGDKQSLLMQSVNLSYQEDGRGFNWRAQAALSLSYLEPTPLDSKFSTGYLELKMRIDKAPEQGANLQVMCSESNCLRDIDFSSFSQLMADKSWHTLAIPLHCDDSDQAEQPITDALRITSQNLSLAIADVALTIKPSDDSISLTCAKLEHHHHHH”, the “soluble on expression in E. coli” value is on record as “soluble”.

With “PLNRLGHKIYQHSGKWLQETAAEKLNQRDQLINPGHAQVLILGMGRIGTGAYDELRARYGKISLGIEIREEAAQQHRSEGRNVISGDATDPDFWERILDTGHVKLVLLAMPHHQGNQTALEQLQRRNYKGQIAAIAEYPDQLEGLLESGVDAAFNIYSEAGSGFARHVCKQLEPQFTSIK”, the “soluble on expression in E. coli” value was “soluble”.

For “MIRINNIILDIDEDLENLKNKAAKKLKVSKESFESFKILRESIDARKKDVIKFNYSVEVKCKNESKIISKIHGKDAILEKNKEEERFQFGNEKLKHRPIVIGTGPCGMFAALTLAENGYAPLVIERGENVEKRTETVDNFWKTGVLNTESNVQFGEGGAGTFSDGKLTTRIKDPRCTYVLEEFIKSGAPEEIGYVGKPHIGTDILKKVVKNIRERIISLGGEVKFNSKLEDIIIKNDSIEAVVVNGAEIPCECLVLAIGHSSRDTYEMLHKKGIFMDPKPFAIGVRIEHPQDFINESQYGKYKNHPRLKAADYKLTHTTKDKRGVYSFCMCPGGEVVASSSEDERLVCNGMSYYKRDLENANAALVVTVNSEDFKASKELYNKDISDNSPLIGMEFQRYYEHLAYLAGGGNYNAPIQLVGDFMKDTVSSKLGSVKPSYTPGYKFASLSECLPPYVIAALKEGLVNFDKKITGYMLSDAVMTGIETRTSAPLKITRNESLESISLKGLYPSGEGAGFAGGIISAAVDGVKSAESIMRKYKILEHHHHHH”, the “soluble on expression in E. coli” value is “not soluble”.
